The target of assay [1] is human GIP receptor (human) (UniProt P48546). As to the kind of experiment: 125I-hGIP competition binding on hGIPR COS-7 cells; fold in affinity, paired, reference taken as GIP(3-30)NH2.
Assay [2] shares this target. The assay can be described thus: ratio of IC50 with 2% HSA to IC50 with 0.1% casein, 125I-hGIP competition binding on hGIPR COS-7 cells.
For assay [3] the target is unchanged. The assay can be described thus: 125I-hGIP(1-42) competition binding, COS-7 cells expressing human GIPR, 2% HSA.
Assay [4] shares this target. As to the kind of experiment: cell-based or functional assay.
For assay [5] the target is unchanged. As to the kind of experiment: 125I-hGIP(1-42) competition binding, COS-7 cells expressing human GIPR.
The target is the same in assay [6]. As to the kind of experiment: 125I-hGIP(1-42) competition binding, COS-7 cells expressing human GIPR, 0.1% casein (no HSA).
Assay [7] has the same target. As to the kind of experiment: 125I-hGIP competition binding, COS-7 cells expressing hGIPR.
The target in assay [8] is T1, human GIP receptor (human, UniProt P48546 22-466).
T1 construct: whole, on cells; Transiently transfected COS-7 cells expressing the human GIP receptor; also called hGIPR
T1 sequence (looked up): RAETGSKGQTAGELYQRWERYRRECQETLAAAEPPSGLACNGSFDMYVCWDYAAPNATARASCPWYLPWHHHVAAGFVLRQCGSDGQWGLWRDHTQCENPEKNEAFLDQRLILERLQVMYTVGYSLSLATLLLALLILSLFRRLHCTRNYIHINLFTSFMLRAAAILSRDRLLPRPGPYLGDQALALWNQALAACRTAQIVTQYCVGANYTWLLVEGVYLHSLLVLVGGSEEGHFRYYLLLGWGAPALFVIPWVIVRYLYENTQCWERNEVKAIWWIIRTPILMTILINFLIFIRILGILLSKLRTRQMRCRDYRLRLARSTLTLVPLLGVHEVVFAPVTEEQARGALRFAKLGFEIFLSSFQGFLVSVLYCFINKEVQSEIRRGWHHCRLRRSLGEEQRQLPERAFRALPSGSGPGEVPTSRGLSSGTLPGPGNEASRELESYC
The assay can be described thus: ratio of IC50 with 2% HSA to IC50 with 0.1% casein, 125I-hGIP competition binding on hGIPR COS-7 cells.
Method: (§1) After incubation, the cells were washed twice in ice-cold binding buffer (+/−2% HSA) and lysed using 200 mM NaOH with 1% SDS for 30 min. Nonspecific binding was determined as the binding of radioactive ligand to untransfected cells.

In assay [9] the target is T1, human GIP receptor. As to the kind of experiment: 125I-hGIP(1-42) competition binding, COS-7 cells expressing human GIPR, 2% HSA.
Method: as §1
In assay [10] the target is T1, human GIP receptor. The assay can be described thus: 125I-hGIP competition binding on hGIPR COS-7 cells; fold in affinity, paired, reference taken as GIP(3-30)NH2.
Method: as §1
In assay [11] the target is T1, human GIP receptor. As to the kind of experiment: cell-based or functional assay.
For assay [12], the target named is T1, human GIP receptor. As to the kind of experiment: 125I-hGIP(1-42) competition binding, COS-7 cells expressing human GIPR.
Method: as §1
For assay [13], the target named is T1, human GIP receptor. As to the kind of experiment: 125I-hGIP(1-42) competition binding, COS-7 cells expressing human GIPR, 0.1% casein (no HSA).
Method: as §1
The target of assay [14] is T2, human GIP receptor (human, UniProt P48546 22-466).
T2 sequence (looked up): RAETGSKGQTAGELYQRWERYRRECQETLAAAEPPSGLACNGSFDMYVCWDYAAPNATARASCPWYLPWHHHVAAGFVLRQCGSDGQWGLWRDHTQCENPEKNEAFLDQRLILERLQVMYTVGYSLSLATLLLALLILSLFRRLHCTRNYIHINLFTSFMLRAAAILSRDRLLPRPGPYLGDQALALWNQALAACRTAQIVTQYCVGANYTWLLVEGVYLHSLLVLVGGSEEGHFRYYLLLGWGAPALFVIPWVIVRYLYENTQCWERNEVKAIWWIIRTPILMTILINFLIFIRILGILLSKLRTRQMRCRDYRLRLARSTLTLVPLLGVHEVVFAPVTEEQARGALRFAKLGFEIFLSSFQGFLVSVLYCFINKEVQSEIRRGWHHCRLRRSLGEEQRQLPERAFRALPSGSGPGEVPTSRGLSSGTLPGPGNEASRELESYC
The assay can be described thus: cell-based or functional assay. The source holds these as a separate data set.

Ends that are not written are not given here. * marks the point of attachment. Stearoyl = CCCCCCCCCCCCCCCCCC(=O)*; Myristoyl = CCCCCCCCCCCCCC(=O)*

A word on the IC50: it is the concentration needed to halve the response being measured.

Molecule “AT162 (H18K; K30R, C18 at position 16, as printed in Table 3b) (peptide)” came in with a fold (paired) in assay [1] of 2.6 fold. In addition, the Fold change (IC50 2% HSA / IC50 0.1% casein) in assay [2] turned out to be 5.6 fold. For the same molecule, the values for the IC50 in assay [3], in [5] and in [6] were 336 nM, 59.8 nM and 59.8 nM, respectively. In addition, the cAMP - antagonisme IC50 in assay [4] worked out at 26.3 nM. The cAMP - antagonisme fold (paired) in assay [4] is 0.5 fold.
Molecule AT114 [hGIP(3-30)NH2-C18/16] (peptide) gave a fold (paired) in assay [1] of 6.7 fold. The Fold change (IC50 2% HSA / IC50 0.1% casein) in [2] worked out at 7.7 fold. For the same molecule, the IC50 was determined as 881 nM in assay [3], 102 nM in assay [5] and 115 nM in assay [6]. This molecule yielded a cAMP - antagonisme IC50 in assay [4] of 29.2 nM. The cAMP - antagonisme fold (paired) in [4] was found to be 2.3 fold.
AT129 [hGIP(5-30)NH2-C18/30] (peptide): the log IC50 in assay [7] is -3.9 log M.
“AT162, second row of Table 3b (H18K; K30R, C16 at position 16) (peptide)” returned a fold (paired) in assay [1] of 9.2 fold. Moreover, the Fold change (IC50 2% HSA / IC50 0.1% casein) in assay [2] is 3.3 fold. Also, the results for the IC50 in assay [3], in [5] and in assay [6] were 705 nM, 213 nM and 213 nM, respectively. The cAMP - antagonisme IC50 in assay [4] came to 213 nM. Also, the cAMP - antagonisme fold (paired) in assay [4] is 4.1 fold.
Take EGTFISDYSIAMDK(Myristoyl)IHQQDFVNWLLAQK-NH2 [AT111 [hGIP(3-30)NH2-C14/16]]: the “Fold change (IC50 2% HSA / IC50 0.1% casein)” value in [8] came to 5.1 fold. Besides, the 50% inhibitory concentration (IC50) in assay [9] stood at 2090 nM; in [12] it was 261 nM; in assay [13], 407 nM. The “fold (paired)” value in [10] was found to be 31 fold. Besides, the “cAMP - antagonisme IC50” value in assay [11] is 21.9 nM. Moreover, in assay [11], the “cAMP - antagonisme fold (paired)” value came out at 3.3 fold.
On to EGTFISDYSIAMDK(Stearoyl)IRQQDFVNWLLAQR-NH2 (not fully specified) [AT162 [hGIP(3-30)NH2[H18R; K30R]-C18/16]], for which, in assay [14], the “cAMP agonism, EC50 (log)” value was -5.9 log M; the “cAMP agonism, Emax” value stood at 44%; the “cAMP agonism, nM (EC50)” value stood at 1370 nM. Also, in [7], the IC50 is 85 nM.

B1: AT160 [hGIP(3-30)NH2[H18K]-C18/18] (peptide)
peptide: EGTFISDYSIAMDKIK(Stearoyl)QQDFVNWLLAQK-NH2
modifications: N-terminus assumed
SMILES: CCCCCCCCCCCCCCCCCC(=O)NCCCC[C@H](NC(=O)[C@@H](NC(=O)[C@H](CCCCN)NC(=O)[C@H](CC(=O)O)NC(=O)[C@H](CCSC)NC(=O)[C@H](C)NC(=O)[C@@H](NC(=O)[C@H](CO)NC(=O)[C@H](Cc1ccc(O)cc1)NC(=O)[C@H](CC(=O)O)NC(=O)[C@H](CO)NC(=O)[C@@H](NC(=O)[C@H](Cc1ccccc1)NC(=O)[C@@H](NC(=O)CNC(=O)[C@@H](N)CCC(=O)O)[C@@H](C)O)[C@@H](C)CC)[C@@H](C)CC)[C@@H](C)CC)C(=O)N[C@@H](CCC(N)=O)C(=O)N[C@@H](CCC(N)=O)C(=O)N[C@@H](CC(=O)O)C(=O)N[C@@H](Cc1ccccc1)C(=O)N[C@H](C(=O)N[C@@H](CC(N)=O)C(=O)N[C@@H](Cc1c[nH]c2ccccc12)C(=O)N[C@@H](CC(C)C)C(=O)N[C@@H](CC(C)C)C(=O)N[C@@H](C)C(=O)N[C@@H](CCC(N)=O)C(=O)N[C@@H](CCCCN)C(N)=O)C(C)C
With B1, the “Fold change (IC50 2% HSA / IC50 0.1% casein)” value in [8] came out at 3.6 fold. In addition, the IC50 stood at 175 nM in [9], 48.8 nM in [12] and 48.8 nM in assay [13]. Besides, the “fold (paired)” value in [10] is 6 fold. For the same molecule, the “cAMP - antagonisme IC50” value in assay [11] came to 36.1 nM. Besides, the “cAMP - antagonisme fold (paired)” value in [11] was 0.7 fold.

The record behind these values is patent US20200087373A1 (UNIVERSITY OF COPENHAGEN, published 2020).
